Assay: yeast display, Sf9 membrane polyspecificity reagent, FACS + sequencing; frameworks hold sequencing errors
Method in brief: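 In a synthetic yeast display library (Saccharomyces cerevisiae BJ5465), nanobody expression was induced with galactose for 36–48 hours. FACS gates were set low and high (top ~1%) using anti-HA fluorescence for expression and streptavidin fluorescence for binding of the Sf9 membrane reagent. Each polyreactivity label is drawn from the gate of origin.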
For “QVLLVESGGGLVQAGGSIRLSCAASGFIFWSNSLGWYRPAPGQEMELVAAISWSGGSTYYADSVKGRFTISRDNAKNNVYLEMNSVKPEDTAVYYCAARQTYGYRYTKYGYWGQGTQVTVSS”, the “polyreactivity (PSR sort gate)” value was “high polyreactivity”.
For “QVLLVESGGGLVQAGGSLRLSCAASGLTFERYAMGWYRQAPGKERELVAAISIRGGSTYYADSVKGRFTISRDKAMNTVYFQMKSLKPEDTAVDYCSADGSGREYDYWGQGTQVTVSS”, the “polyreactivity (PSR sort gate)” value was “low polyreactivity”.
With “QVLLVESGGGLVQAGGSLRLSCAASGRIFNAYAMGWYRQAPGKERELVAAISRSGGRTYYADSVKGRFTISRDNAKITVYLQMNSLKPEDTAVYYCAADAWSEQYPKYYYWGQGTQVTVSS” the “polyreactivity (PSR sort gate)” value was “low polyreactivity”.
With “QVLLVESGGGLVQAGGSLRLSCAASGRTLRGYAMGWYRQAPGKERELVAAITWSGGSTYYADSVKGRFTISRDHAKNTVYLQMNSLKPEDTAVYYCNARSYPDLYDYWGQGTQVTVSS” the “polyreactivity (PSR sort gate)” value was “low polyreactivity”.
With “QVLLVESGGGLVQAGGSLRLSCAASGYTFHVNAMGWYRQAPGKERELVAAINTSGDSTYYADSLKGRFTISRDNAKNTVYLQMNSLKPEDTAVYYCNAKGSVTRIGMEYDYWGQGTQVTVSW” the “polyreactivity (PSR sort gate)” value was “low polyreactivity”.
With “QVLLVESGGGLVQAGGSLRLSCSASGSTSRFYAMGWSRQEPGKERELVAAINKSGTRTYYADSVKGRFTISRDNAKNTVYLQMNSLKPEDTAVYYCAADQGTYGYGGFYYWGLGTQVTVSS” the “polyreactivity (PSR sort gate)” value was “high polyreactivity”.
In the case of “QVLLVESGGGLVQAGGSLRLSSAASGSTYRNAMGWYRQAPGKERELVAAISSSGGRTYYADSVKGRFTISRDNAKNTVYLQMNSLKPDDTAVYYCAAPRFAAPSRIGYDWGQGTQVTVSS”, the “polyreactivity (PSR sort gate)” value is reported as “high polyreactivity”.
In the case of “QVLLVESGGGLVQAGGSLRLTCTPYGSIFGYYVMGRYRQPPGKEREFVAAISYGGGSTYYADSVKGRFTISRDNAKNTVYLQMNSLKPEETAVYYCNTDIYSDYVGEEYEYWGQGSQVTVSS”, the “polyreactivity (PSR sort gate)” value is reported as “high polyreactivity”.
In the case of “QVLLVESGRGIVQAGGSLRLSCAASGGTFQPYAMGWYRQDTGKERELVAANSLNTGSTYYADSVKGRFTISRDNAKNTVYLQMNSLKPEDTAVDYCAVKWFYGGYDYWGQGTQVTVSS”, the “polyreactivity (PSR sort gate)” value is reported as “low polyreactivity”.
For “QVLMQESGGGLVQAGGSLRLSCAASGNIFSAGGMGWYRQAPVNERELVAGIGTATSTNYADSVKGRFTFSRDNAKNTVYLQMNSLKREDTAVYYCAAAYYSGLSHWYWGQGTQVTVSS”, the “polyreactivity (PSR sort gate)” value was “low polyreactivity”.
For “QVLQVESGGGVVQAGGSLRLSCSASGSTIGNKTMGWYRQAPGKEREFVAAITESGGGTYADSVKGRFTISRDNAKNTVYLQMNSLKPEDNAVYYSAAVWYIWPFAFYYWGEGTQVTVSS”, the “polyreactivity (PSR sort gate)” value was “high polyreactivity”.
With “QVNLVDSGGGLVQAGGSHRLSCAASGSIVSGNAMGWYRQEPGKERELVATISWSGGSTNYADSVKGRFTISRDNAKNTVYLQMNSLKPEDTAVYYCNAYVAYWGWVYRVDYWGQGTQVTVSS” the “polyreactivity (PSR sort gate)” value was “low polyreactivity”.
With “QVNLVESGGGLVQAGGSLRLSCAASGIIFRSYAMGWYRPAPGKARELVADITSTGTSTYYADSVKGRFTISRDNAKNTVYLQMNSLKPEDNAVYYCNADRFGFYPQRDYWGQGTQVTVSW” the “polyreactivity (PSR sort gate)” value was “high polyreactivity”.
With “QVPLVEKGGGLVQAGGSLRLSCAASGFTIGYYAMGWYRQAPGKERELVAASTWRGDTTYYADSVKGRFTISRDNAKNTVYLQMNSLKPEDTAVYYCAAEYEVYFDWSYYYWGQGTQVTVSS” the “polyreactivity (PSR sort gate)” value was “high polyreactivity”.
In the case of “QVPLVESGGGIVQAGGSLRLSCAASGRTFRYNAMGWDRQAPGKEREKVAAITYGGGSTYYADSVKGRFTISRDNEKNTVYLQMNILKPEDTAVYYCATRGVSPSRPGYYCGQGTQVTVSS”, the “polyreactivity (PSR sort gate)” value is reported as “high polyreactivity”.
In the case of “QVPLVESGGGLVQAGCSLRLSCAASGSIFTRDAMGWYRPAPGKERELVAAISAGGGTTYYADSVKGRFTNSRDNAKNTVYLLMNSLKPEDSSVFYCAKRSRSGYYADDSWGHGTQVTVSS”, the “polyreactivity (PSR sort gate)” value is reported as “high polyreactivity”.
For “QVPLVESGGGLVQAGGSLRLSCAASGRTFGIYAMGWYRQEPGKERELVATISWRGGSTNYADSVKGRFTISRDNAKNTVYLQMNSLKPEDTAVYYCAADPCGFGYPYLTRGTDGYDYWGQGTQVTVSS”, the “polyreactivity (PSR sort gate)” value was “low polyreactivity”.
For “QVPLVESGGGLVQAGGSLRLSCAASGSICGGYAMGWYRQAPGKERELVAGITYSGDSTYYADSVKGRFTISRDNAKNTVYLQMNSLKPEDTAGYYCNADQRVDHDDFDYWGQGTQVTVSS”, the “polyreactivity (PSR sort gate)” value was “low polyreactivity”.
With “QVPLVESGGGLVQAGGSLRLSCAASGSIFAPYTMGWYRQAPGKERELVAAISVTTGITYYADTLKGRFTISRDNAKNTVYLQMNSLKPEDTGVYYCAAELYKSLWYEYWGQGTQVTVSS” the “polyreactivity (PSR sort gate)” value was “low polyreactivity”.
In the case of “QVPLVESGGGLVQAGGSLRLSCAAYGFTFWTYAMGWYRQAPGKDRELVAAISRSAGRTYYADSVKGRFTISRDNAKNTVYLQMNSLKPEVSAVYYCNARAGYERYGYWGQGSQVTVSS”, the “polyreactivity (PSR sort gate)” value is reported as “high polyreactivity”.
In the case of “QVQFEESGGGLVQAGGSLRLSCAASGSTFQGYAMGWSRQAPGKERELVAAISSGGSTNYADSVKGRFTISRDNAKNTVYLQMNSLKPEDTAVYYCNVDLTTVGHWYYYRPGYDYWGQGTQVTVSS”, the “polyreactivity (PSR sort gate)” value is reported as “low polyreactivity”.
For “QVQHEESGGGLVQAGGRLRLSCAASGRIFKQYALGGYRQAPGKERELVAAISVRGGITYYADSVKGRFTISRDNAMNTVYLQMNSLKPEDTAVYYCAKRSFRTHTYDYWGHGTQVTVSS”, the “polyreactivity (PSR sort gate)” value was “low polyreactivity”.
With “QVQHEESGGGLVQAGGSLRLSCAASGSIIRYYPMGWYRQATGKQRELVAAISRDDSRTYYADSVRGRFTISLDNAKNTVYLQMNSLKPEDTAVYYCAADSSRYTRYLYYYWGQGTQVTVSS” the “polyreactivity (PSR sort gate)” value was “high polyreactivity”.
With “QVQHEESGGGLVQAGGSLRLSSAASGSTFVDYDMGCYRQAPGKVRELVAGITTGGSTNYADSVKGRFTISRDNALNTVYLQLKRLKPEDTAVYYCNSDSYTNLVPDYLYYWYEYWGQGTQVTVSS” the “polyreactivity (PSR sort gate)” value was “low polyreactivity”.
With “QVQHEESGVGLVQAGGRLRVSCAASGSTFAANTMGWYRTAPGKERELVAAITVRGGSTYYADSVKGRFSISRDNAKNTVYLQMISLKPEDTAVYYCAAERPPYGYLVVGFVSTQYYYWGQGTQVTVSS” the “polyreactivity (PSR sort gate)” value was “low polyreactivity”.
In the case of “QVQHGESGGGIVQAVVSLRLSCSASGFTFYYYPMGWYRQAPGKERELVAAIDTGGSTNYADSVKGRFTMSRDNAKNTVYLQMNSLKPEDTAVYYCNALQPGLGSPLGEYDYWGQGTQVTVSS”, the “polyreactivity (PSR sort gate)” value is reported as “low polyreactivity”.
For “QVQHVDSGGGIVQAGGSLRLSCAPSGRTILRYTMGWYRHAPGKERELVASITRGGSSYYADSVKGRFTISRDNAKNTVYLQMNSLKPEDTAVYYCAARRYYGVYYAFYYWGQGTQVTVSS”, the “polyreactivity (PSR sort gate)” value was “high polyreactivity”.
With “QVQHVDSGGGLVQAGGSLRLSCAASGSTFQLYAMGRDRQAPGKERELVASISWSGGSTYYADSVKGRFTISRDNAKNTVYLQMNSLKPEDTAVYSCNDDFWWRYRPGAVFPSYGYWGQGTQVTVSS” the “polyreactivity (PSR sort gate)” value was “low polyreactivity”.
With “QVQHVDSGGGLVQAGGSLSLSCAASGSIFWPNTMGWYRQARGKERELVATISSGADTSYADSVKGRFTISRDNAKNTVYLQMNSLKPADTAVYYCAIRITVDDDHPRAQTFNYCGQGTQVTVSS” the “polyreactivity (PSR sort gate)” value was “low polyreactivity”.
In the case of “QVQHVDSGVCLVQAGGSLRLSCDASGSIFGSYAMGWYRQPPGKERELVAAISKSVGNTYYADSVKGRFTISRDNAKNTVYLQMNSLKPEVTAVYYCAAYGFYRWRGYDYWGQGTQVTVSS”, the “polyreactivity (PSR sort gate)” value is reported as “high polyreactivity”.
In the case of “QVQHVESAGGLVQAGGSLRLSCAASGSIFWYAMGWYRQAPGKERELVDGISRGGSTYYADSVKGRFTISRDNAKNTVYLQMNSLKPEDTAVYYFNTAGYYGTPYNYWGQGTQVTVSS”, the “polyreactivity (PSR sort gate)” value is reported as “low polyreactivity”.
With “QVQHVESGGALVQAGGILRLSCAASGYTFYVYAMGWYRQAPGKERELVAAISGGSNTYYADSVKGRFTISRDNGKNTVYLQMNSLKPEDTAVYYCAKSSTTYRQRARYDYWGQGTQVTVSS” the “polyreactivity (PSR sort gate)” value was “high polyreactivity”.
In the case of “QVQHVESGGALVQAGGSLRLSCAASGSIFGDYAMGWYRQAPGKERELVAAITSDRDTYYADSVKGRFTISRDNAKNTVYLQMNSLKPEDTAVYYCNATYGGPYFIQYDYWGQGTQVTVSS”, the “polyreactivity (PSR sort gate)” value is reported as “low polyreactivity”.
For “QVQHVESGGALVQAGGSLRLSCAASGSTFIKYAMGWYRQAPGKERELVAAISRSGASTYYADSVKGRFTLSRDNEKNTVYLQMKSLKPEDTAVYYCAARRRYLDHGYWGQGTQVTVSS”, the “polyreactivity (PSR sort gate)” value was “high polyreactivity”.
In the case of “QVQHVESGGCLVQAGGILRLSCAASGSIFQSNTMGWYRQAPGKVRELVAYISNGGTTTYANSVKGRFTISRDNAKTTVYLQMNSLKPEDTAVYYCATYYWQYYEYDYWGQGTQVTVSS”, the “polyreactivity (PSR sort gate)” value is reported as “low polyreactivity”.
In the case of “QVQHVESGGCLVQAGGSLRLSCAASGLIIKSYVMGWYRQAPGKERELVAGITGSGGTTYYADSVKGRFTISRDNAKNTVDLQMNSLKPEDTAVYYCDARSRSRPKYDYWGQGTQVTVSS”, the “polyreactivity (PSR sort gate)” value is reported as “high polyreactivity”.
For “QVQHVESGGCLVQAGGSLRLSCAASGSIFYRYAMGWYRQGPGKESQLVAAIRRGGSTNYADSVKGRFTISRDNAKYTVSLQMNSLKPEDTAVYYCAAGRFTYAAQSYEYWGQGTQVTVSS”, the “polyreactivity (PSR sort gate)” value was “high polyreactivity”.
With “QVQHVESGGGIVQAGGSLRLSCPASGSIYRKYAMGWSRQTPGKERELVAAIRSSGGSTYYADSVKGRFTISRDNAKNTVYLQMNSLKPEDTAVYYCASTYYRPSRYDYCGQGTQVTVSS” the “polyreactivity (PSR sort gate)” value was “high polyreactivity”.
With “QVQHVESGGGLFKAGGTLRLSCAASGRTIYPYAMVLYIQAPGKESELVAAIRWSGGSTYYADSVKGRFTISRDNSKNTVYLQMNSLKPVDTAVYYCNADWKSYRGPIVDYWGQGTQVSVSS” the “polyreactivity (PSR sort gate)” value was “low polyreactivity”.
In the case of “QVQHVESGGGLGQAGGSLRLSCAASGIIFPRYKAWYRPAPGKDRELVAAIRWSSDDTNYADSVKGRFTISRDNAKNTVYLQMNSLKPEDTAVYYCAADSYYDRTIQFEFSARTYDYWVQGTQVTVSS”, the “polyreactivity (PSR sort gate)” value is reported as “low polyreactivity”.
In the case of “QVQHVESGGGLLQAGGSLRLSCAASGITFFEYAMGWYRQAPGKERELVAVITSVGSTNYADSVKGRFTISRDNAKNTVYLQMNSLKPVDTAVYYCNARLVKYRWWYDYYYWGQGTQVTVSS”, the “polyreactivity (PSR sort gate)” value is reported as “low polyreactivity”.
